Assay results from the supplement of paper PMC9170038.

Test system: MS2 coat protein
Experiment: apparent KD of MS2 coat protein; designed switch direction (-1 OFF switch, 1 ON switch): -1; higher = weaker reporter binding
Method in brief: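 Stalled E. coli RNA polymerase transcribed designed RNA switches on Illumina chips, which were then titrated with SNAP-549-labelled MS2 coat protein, doubling from 0.7 or 1.5 nM to 3 µM. Steps lasted from 0.8–1.5 h at the lowest concentration to 10–20 min at the highest. The apparent KD is each design's median over clusters of curve-fitted normalised fluorescence.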

[1] = input ligand: microRNA oligo, concentration not stated
[2] = Eterna round: R95, input ligand: microRNA oligo, concentration not stated

Row | Sequence | apparent KD of MS2 coat protein (input ligand: FMN 200 uM) | apparent KD of MS2 coat protein [1] | apparent KD of MS2 coat protein (input ligand: none) | apparent KD of MS2 coat protein [2]
1 | GUCAGCUCGUGAGGAUAUACAUGAGGAUCACCCAUGUGGUCAAUAGCAGCUUCGGCUGCAUACAUGUAGAAGGCACGAGCUGAC [ENG2/7-A1] (Eterna round: R96, puzzle: Exclusion NG 2) | 59.7 nM | 9.59 nM | 30.7 nM | –
2 | GUCAGCUCGUGAGGAUAUACAUGAUAGAUCGAUUAAUUAAUUAAUUUAACAUGAGGAUCACCCAUGUAGAAGGUACGAGCUGAU [ENG2/1-C2] (Eterna round: R96, puzzle: Exclusion NG 2) | – | 40.1 nM | – | –
3 | GUCAGCUCGUGAGGAUAUACAUGCGUGCUUCGGCACGAAUUUAAGAUCACAUGAGGAUCACCCAUGUAGAAGGCACGAGCUGAU [ENG2/3-A2] (Eterna round: R96, puzzle: Exclusion NG 2) | 366 nM | 896 nM | 797 nM | –
4 | GUCAGCUCGUGAGGAUAUAUAUACAUGAGGAUCACCCAUGUAAGAUCAGGCUUCGGCCAAUGUAUAUAGAAGGCACGAGCUGAC [ENG2/11-A1] (Eterna round: R96, puzzle: Exclusion NG 2) | 1350 nM | 1510 nM | 636 nM | –
5 | GUCAGCUCGUGAGGAUAUGAACAUGAGGAUCACCCAUGUAAGAUCAAGCUGCUUCGGCAGCAAGUUCAGAAGGCACGAGCUGAU [ENG2/10-A2] (Eterna round: R96, puzzle: Exclusion NG 2) | 251 nM | 134 nM | 172 nM | –
6 | GUCAUACAUGAGGAUCACCCAUGUAAGGAUAUGCUAGCGGUCGGAAGAAUGACUGCUAGCAGAAGGUACAUGAU [Mat - Mod of JL D83] (puzzle: Exclusion 1) | – | – | – | 62.5 nM
7 | GUCAUCAAACAUGGGAUCAACAUGAGGAUCACCCAUGUUGUCAAGUUUUUUGCUCGUCUUAUAAUACGUUUGAUGAC [Mod-Jxb] (Eterna round: R97, puzzle: Sensor, turn-off variant 1) | 16 nM | – | 16.4 nM | –
8 | GUCAUCACACAUGGGAUCAACAUGAGGAUCACCCAUGUUGCCAAGUUGUUUGCACGUCUUAUCAUACGUUUUUCGAG [Mod-Jxh] (Eterna round: R97, puzzle: Sensor, turn-off variant 1) | 22.9 nM | – | 23.2 nM | –
9 | GUCAUGAUAGGAUAUUACGGACGGAACAUGAGGAUCACCCAUGUGUCCCAAUCCAACUGAUAAGAAGGAUCAUGGC [Eternabot (Original) Solution 34] (Eterna round: R97, puzzle: Exclusion 5) | 18.8 nM | – | 14.5 nM | –
10 | GUCCAACAUGAGGAUCACCCAUGUCAGGAUAUGCGAAUUUCAUCAAAAGAUGAAAUUUGCAGAAGGGACUGGAC [Omei Ex1 A29] (Eterna round: R97, puzzle: Exclusion 1) | 44 nM | – | 23.3 nM | –
11 | GUCCUACAUGAGGAUCACCCAUGUAAGGAUAUGCUAGCGGUCGGAUGACUGACUGCUAGCAGAAGGUACAUGAU [Mat - Mod of JL D78] (puzzle: Exclusion 1) | – | – | – | 15.5 nM
12 | GUCGUGCGGCUUUGCUGUACGAGUACAUGAGGAUCACCCAUGUAGGAUAUGGUACGCUUUGCGUGCCAGAAGGGCGUGCGUUGG [salish99_ExNG3_r04_006] (Eterna round: R96, puzzle: Exclusion NG 3) | 33.3 nM | 23.9 nM | 29.9 nM | –
13 | GUCGUGCGGCUUUGCUGUACGAGUACAUGAGGAUCACCCAUGUAGGAUAUGGUUCGUUUUGCGUGCCAGAAGGGCGUGCGUUGU [Excl-NG3-LRO14] (Eterna round: R96, puzzle: Exclusion NG 3) | – | 15.1 nM | – | –
14 | GUCGUGCGGCUUUGCUGUGCGGGUGCAUGAGGAUCACCCAUGUAGGAUAUGGUACGCUUUGCGUGCCAGAAGGGCGUGCGUUGG [salish99_ExNG3_r04_009] (Eterna round: R96, puzzle: Exclusion NG 3) | 154 nM | 114 nM | 110 nM | –
15 | GUCUGGCUAGGAUAUACAGUGUCCACAAGUUAGUUACCCUAACAUGAGGAUCACCCAUGUAGAAGGAGUGAGAA [Revebeed] (Eterna round: R96, puzzle: Exclusion 2) | 355 nM | 34.7 nM | 45.4 nM | –
16 | GUCUUGUCAGGAUAUCUUACAUAACCAUCGUAGUUACAAUUGGAGAAGGGACAUGAGGAUCACCCAUGUUUGCG [tap-tap-tappy32] (Eterna round: R97, puzzle: Exclusion 4) | 34.8 nM | – | 26.6 nM | –
17 | GUGAAACAUGAGGAUCACCCAUGUGAGGAUAUGUUUUAGUACUGCAGACAGUACAUCUAUAGAAGGCACAAUGG [Mat - Mod of JL D74] (puzzle: Exclusion 1) | – | – | – | 37 nM
18 | GUGAAGGUAGGAUAUACGAUAAUAUAGGGUAGAUAUAUAACACAUGAGGAUCACCCAUGUAGAAGGACCAAGUG [Mat - Exclusion 2 - Mod of my Tesla design - D61] (puzzle: Exclusion 2) | – | – | – | 46 nM
